According to patent US20230203482A1, “Methods of Rescuing Stop Codons via Genetic Reassignment with ACE-tRNA” (THE WISTAR INSTITUTE OF ANATOMY AND BIOLOGY, priority 2017, published 2023):
Positions count from the first letter of the chain named.

B1: TS-38: t-stem variant of Trpchr17.trna39, SEQ ID NO: 3 (nucleic acid)
chain: GGCCTCGTGGCGCAACGGTAGCGCGTCTGACTTCAGATCAGAAGGTTCCGGGTTCAAATCCCGGCGGGGTCA
modifications: expressed or natural sequence
B2: ArgTGAchr17.trna3/withinron: ACE-tRNA Arg, TGA suppressor, SEQ ID NO: 12 (nucleic acid)
chain: CGTCGGCTCTGTGGCGCAATGGATAGCGCATTGGACTTCAAGTGACGAATAGAGCAATTCAAAGGTTGTGGGTTCGAATCCCACCAGAGTCG
modifications: expressed or natural sequence
B3: ArgTGAchr1.trna10/withintron: ACE-tRNA Arg, TGA suppressor, SEQ ID NO: 11 (nucleic acid)
chain: CGTCGGCTCCGTGGCGCAATGGATAGCGCATTGGACTTCAAGAGGCTGAAGGCATTCAAAGGTTCCGGGTTCGAGTCCCGGCGGAGTCG
modifications: expressed or natural sequence
B4: ArgTGAchr1.trna10/nointron: ACE-tRNA Arg, TGA suppressor, SEQ ID NO: 6 (nucleic acid)
chain: CGTCGGCTCCGTGGCGCAATGGATAGCGCATTGGACTTCAAATTCAAAGGTTCCGGGTTCGAGTCCCGGCGGAGTCG
modifications: expressed or natural sequence
B5: ArgTGAchr17.trna3/nointron: ACE-tRNA Arg, TGA suppressor, SEQ ID NO: 8 (nucleic acid)
chain: B4 chain with C10T, C53G, C54T, G63A, G68A, G69C, G71A
modifications: expressed or natural sequence
B6: ArgTGAchr16.trna3: ACE-tRNA Arg, TGA suppressor, SEQ ID NO: 10 (nucleic acid)
chain: CGTCGCCCCGGTGGCCTAATGGATAAGGCATTGGCCTTCAAAGCCAGGGATTGTGGGTTCGAGTCCCACCCGGGGTA
modifications: expressed or natural sequence
B7: ArgTGAchr9.trna6/withintron: ACE-tRNA Arg, TGA suppressor, SEQ ID NO: 9 (nucleic acid)
chain: CGTCGGCTCTGTGGCGCAATGGATAGCGCATTGGACTTCAAGCTGAGCCTAGTGTGGTCATTCAAAGGTTGTGGGTTCGAGTCCCACCAGAGTCG
modifications: expressed or natural sequence
B8: TrpTGAchr17.trna10: ACE-tRNA Trp, TGA suppressor, SEQ ID NO: 49 (nucleic acid)
chain: B1 chain with G2A, C16T, C48G, G51T, A58G, C61A, G64T
modifications: expressed or natural sequence
B9: GlyTGAchr17.trna9: ACE-tRNA Gly, TGA suppressor, SEQ ID NO: 55 (nucleic acid)
chain: GCGTTGGTGGTATAGTGGTAAGCATAGCTGCCTTCAAAGCAGTTGACCCGGGTTCGATTCCCGGCCAACGCA
modifications: expressed or natural sequence
B10: GlyTGAchr1.trna107: ACE-tRNA Gly, TGA suppressor, SEQ ID NO: 54 (nucleic acid)
chain: B9 chain with A20G
modifications: expressed or natural sequence
B11: GlnTAGchr6.trna63: ACE-tRNA Gln, TAG suppressor, SEQ ID NO: 18 (nucleic acid)
chain: CGTCGGTCCCATGGTGTAATGGTTAGCACTCTGGACTCTAAATCCAGCAATCCGAGTTCGAATCTCGGTGGGACCT
modifications: expressed or natural sequence
B12: GlnTAGchr17.trna14: ACE-tRNA Gln, TAG suppressor, SEQ ID NO: 19 (nucleic acid)
chain: B11 chain with A49G, G60A
modifications: expressed or natural sequence
B13: GlnTAGchr6.trna175: ACE-tRNA Gln, TAG suppressor, SEQ ID NO: 17 (nucleic acid)
chain: B11 chain with T7C, A49G, G60A
modifications: expressed or natural sequence
B14: GlnTAGchr6.trna132: ACE-tRNA Gln, TAG suppressor, SEQ ID NO: 20 (nucleic acid)
chain: B11 chain with T7C, T24C, A49G, G60A, T76C
modifications: expressed or natural sequence
B15: GlnTAGchr1.trna17: ACE-tRNA Gln, TAG suppressor, SEQ ID NO: 16 (nucleic acid)
chain: B11 chain with C8T, T24G, A49G, A62G, G72A
modifications: expressed or natural sequence
B16: TrpTAGchr12.trna6: ACE-tRNA Trp, TAG suppressor, SEQ ID NO: 36 (nucleic acid)
chain: CGTCGACCTCGTGGCGCAACGGTAGCGCGTCTGACTCTAGATCAGAAGGCTGCGTGTTCGAATCACGTCGGGGTCA
modifications: expressed or natural sequence
B17: TrpTAGchr17.trna10: ACE-tRNA Trp, TAG suppressor, SEQ ID NO: 33 (nucleic acid)
chain: B16 chain with C20T, C50T, G60A, A62G
modifications: expressed or natural sequence

The molecules below were run on NLuc-UGA PTC (assay: NanoLuc nonsense reporter screen (all-in-one HTC plasmid), TGA/UGA PTC, HEK293 cells). Conditions: HEK cells, luciferase 24 hours post-transfection.
Assay type: cell-based, human
From the text: Several different nonsense mutations cause CF, thus underlying roughly 10% of all CF disease. FIG. 7. These cases are concentrated into […] specific genetic lesions: E60X, R75X, G542X, R553X, Q890X, Y1092X, R1158X, R1162X and W1282X. A screen was developed to screen existing human tRNA sequences for modification and tolerance to anti-codon editing. To this end, roughly 144 ACE-tRNAs were candidates to test for those that could be used to promote the repair of the disease causative nonsense codon and the expression of the full-length protein. Specifically, using the scheme described in FIG. 11, tRNA libraries were generated to identify novel tRNA sequences that encode for ACE tRNA with the ability to repair the top CF causative nonsense mutations. Specifically, 10 ng of annealed oligos encoding the ACE-tRNAs were combined with 50 ng of NanoLuc reporter plasmid, 1 μl 10×CutSmart Buffer (NEB), 1 μl T4 ligase (NEB), 10 mM ATP and 1 μl BbsI (NEB) and cycled in a thermocycler as described in FIG. 11. 1 μl of the reaction was transformed into competent E. coli and the transformants were plated on ampicillin agar plates. One transformant was picked per plate was picked, grown in 1 ml of LB under ampicillin selection, miniprepped and sequence verified.
Screening studies were first performed to identify the best ACE-tRNA Candidates from tryptophan and glycine. 125 ng of sequence verified miniprep cDNA of NanoLuc reporter plasmid with ACE-tRNA was transfected into HEK cells using calcium phosphate. HEK cells were plated in 96 well plates at 4×10^4 the day prior. 24 hours after transfection the media was replaced with 20 μl of PBS and 15 μl of NanoGlo reagent (Promega) was added. Plates were read on a SpectraMax i3 (Molecular Devices). Data are of replicates of 3 or greater. FIG. 8.
FIG. 10. An additional modification of the tRNA was made to further enable their function for the purpose of suppression of nonsense codons and the promotion of protein expression. […] To this end, single and double mutations were directly engineered into the t-stem loop of tRNA Trpchr17.trna39—an ACE-tRNA identified with activity for the rescue of tryptophan TGA nonsense codons. Thirty-eight tRNA t-stem variants were thus generated and screened in HEK cells transiently transfected with the nonsense rescue reporter construct shown in FIG. 4. […] This is a generalizable modification, that is, new tRNA sequences identified, by example 1 and 2, can be made better (for their ability to rescue nonsense codons) through further rationale modifications. Such approaches aid in the therapeutic utility of ACE-tRNA directed to tissue types with low abundance target RNA or where tRNA delivery may be limiting.
In order to enable the identification of the nucleotide composition and functional ability to suppress nonsense codons by new types of tRNA, an All-In-One Plasmid With A One Pot Cloning Reaction was invented for High Throughput Cloning FIG. 11. This approach enables the facile investigation of ACE-tRNA activity via luciferase activity in a standard 96 well format. Briefly, synthetic nucleotide sequences encoding for tRNA are ligated into the NanoLuc Reporter plasmid, with an example of the TGA nonsense reporter plasmid variant shown in FIG. 11. […] and TAG (amber) stop codon rescue vectors have been successfully designed and implemented in FIGS. 16-19. The benefits are the approach is that DNA oligos encoding for tRNA libraries can be ligated in the NanoLuc reporter plasmid with the presence of the restriction enzyme and ligase with the reaction pushed to nearly 100% incorporation of tRNA insert (FIG. 11)-thus the ‘one-pot’ designation. The reaction is transformed into E. coli, with the resultant cDNA purified by standard methods. […]
In the case of B1, the “enhancement of the suppression ability of Trpchr17.trna39 by t-stem mutation” value is reported as “roughly 250%”.

Same assay, conditions: Table 1, Arg TGA
In the case of “ArgTGAchr7.trna5: ACE-tRNA Arg, TGA suppressor, SEQ ID NO: 7”, the Ranking is reported as “#4”. “ArgTGAchr9.trna6/nointron: ACE-tRNA Arg, TGA suppressor, SEQ ID NO: 4” was tested, and the Ranking was “#1”. For “ArgTGAchr17.trna19: ACE-tRNA Arg, TGA suppressor, SEQ ID NO: 5”, the Ranking was “#2”. B2 was tested, and the Ranking was “#7”. With B3 the Ranking was “#6”. With B4 the Ranking was “#3”. In the case of B5, the Ranking is reported as “#4”. In the case of B6, the Ranking is reported as “#5”. In the case of B7, the Ranking is reported as “#5”.

Same assay, conditions: Table 7, Trp TGA
With “TrpTGAchr6.trna171: ACE-tRNA Trp, TGA suppressor, SEQ ID NO: 50” the Ranking was “#3”. With B8 the Ranking was “#2”.

Same assay, conditions: Table 8, Gly TGA
For B9, the Ranking was “#3”. B10 was tested, and the Ranking was “#2”.

Each molecule was assayed on NLuc-UAG PTC (assay: NanoLuc nonsense reporter screen (all-in-one HTC plasmid), TAG/UAG PTC, HEK293 cells). Conditions: Table 2, Gln TAG.
Assay type: cell-based, human
From the text: In order to enable the identification of the nucleotide composition and functional ability to suppress nonsense codons by new types of tRNA, an All-In-One Plasmid With A One Pot Cloning Reaction was invented for High Throughput Cloning FIG. 11. This approach enables the facile investigation of ACE-tRNA activity via luciferase activity in a standard 96 well format. Briefly, synthetic nucleotide sequences encoding for tRNA are ligated into the NanoLuc Reporter plasmid, with an example of the TGA nonsense reporter plasmid variant shown in FIG. 11. […] and TAG (amber) stop codon rescue vectors have been successfully designed and implemented in FIGS. 16-19. The benefits are the approach is that DNA oligos encoding for tRNA libraries can be ligated in the NanoLuc reporter plasmid with the presence of the restriction enzyme and ligase with the reaction pushed to nearly 100% incorporation of tRNA insert (FIG. 11)-thus the ‘one-pot’ designation. The reaction is transformed into E. coli, with the resultant cDNA purified by standard methods. Another benefit of the invented method is that the tRNA and reporter gen are within the single expression cassette, therefore lowering biological variability and improving data quality obtaining in resulting screens of tRNA suppression activity. The purified cDNA plasmids are then screened in high-throughput 96 well format for their ability to repair nonsense codons by inferred luciferase activity. The approach is suitable for the high-throughput screening of hundreds to thousands of tRNA for novel therapeutic activity.
The rationale of this study is rooted in the observation that there are multiple tRNA genes with unique sequences (isodecoders) for a given cognate amino acid (isoacceptors), leading to >400 tRNAs annotated in the human genome (http:lowelab.ucsc.edu/GtRNAdb/)^28, 29. First, tRNA genes were examined to identify individual ACE-tRNAs that retain suppression efficacy of PTCs in mammalian cells. In order to maximize sequence coverage, an all-in-one cDNA plasmid was generated that supports both high-throughput cloning (HTC) of ACE-tRNAs and quantitative measurement of PTC suppression using luminescence following delivery to mammalian cells, FIG. 21B. ACE-tRNA sequences were cloned as DNA oligos into the HTC plasmid using Golden Gate cloning^30 paired with ccdB negative selection^31. This strategy produced ˜100% cloning efficiency. ACE-tRNA suppression efficiency was read out from a split NanoLuc luciferase (NLuc) NanoBiT platform whereby the PTC of interest (UGA, UAA, or UAG) was introduced in-frame at the junction between the large bit and small bit domains, FIG. 21B^32, using a 96-well format and normalized to background obtained in NLuc-PTC expressing cells. Twenty-one glycine ACE-tRNAs were first evaluated for suppression of the UGA PTC, FIG. 22, top left, column 1 (violet). […] Given the high sequence conservation among the Gly-tRNAs screened for anti-codon tolerance (FIG. 27), it would be difficult to predict de novo which tRNA would be most amenable to anticodon-editing.
The parent plasmid used was pcDNA3.1(+). The cDNA encoding pNLuc was Gibson Assembled (New England Biolabs, USA) into restriction sites HindIII and XhoI. A glycine (codon gga), tryptophan ([…]), amber (tag), opal (tga) and ochre (taa), were added to amino acid position 160 during cDNA per. The pcDNA3.1(+) polyA sequence was replaced for one with no BbsI restriction sites using per based Gibson Assembly. The high throughput ACE-tRNA Golden Gate cloning site was generated by first inserting the 5′ leader sequence of the human tRNA^Tyr gene (bold) with a T7 promoter sequence upstream (italics)
tRNA gene sequences were obtained from the tRNA database tRNAscan-SE (http://gtrnadb.ucsc.edu/index.html; PMID: 26673694). […]
For B11, the Ranking was “#3”. B12 was tested, and the Ranking was “#4”. B13 was tested, and the Ranking was “#2”. B14 was tested, and the Ranking was “#5”. B15 was tested, and the Ranking was “#1”.

Same assay, conditions: Table 4, Trp TAG
For “TrpTAGchr6.trna171: ACE-tRNA Trp, TAG suppressor, SEQ ID NO: 34”, the Ranking was “#2”. With “TrpTAGchr17.trna39: ACE-tRNA Trp, TAG suppressor, SEQ ID NO: 35” the Ranking was “#3”. With B16 the Ranking was “#4”. In the case of B17, the Ranking is reported as “#1”.
